Numbering of substitutions follows the chain as printed. “Also recorded” adds a separate entry of the source. Where no end group is shown, it is not given here.
Experiments:
[1] = test system: Fas/FAP-1 binding; experiment: In vitro inhibition assay of Fas/FAP-1 binding (GST-Fas and in vitro-translated 35S-FAP-1); settings: for binding of in vitro-translated FAP-1 to GST-Fas: FIG. 3A, C-terminal 15 amino acids at 1-1000 μM, human PAMP 1 mM as negative control
Method: HFAP-10 cDNA (Sato, et al. 1995) subcloned into the Bluescript vector pSK-II (Stratagene) was in vitro-translated from an internal methionine codon in the presence of ^35S-L-methionine using a coupled in vitro transcription/translation system (Promega, TNT lysate) and T7 RNA polymerase. The resulting ^35S-labeled protein was incubated with GST-Fas fusion proteins that had been immobilized on […] affinity beads (Pharmacia) in a buffer containing 150 mM NaCl, 50 mM Tris [pH 8.0], 5 mM DTT, 2 mM EDTA, 0.1% NP-40, 1 mM PMSF, 50 μg/ml leupeptin, 1 mM Benzamidine, and 7 μg/ml pepstatin for 16 hours at 4° C. After washing vigorously 4 times in the same buffer, associated proteins were recovered with the glutathione-Sepharose beads by centrifugation, eluted into boiling Laemmli buffer, and analyzed by SDS-PAGE and fluorography.
In vitro-translated [^35S]HFAP-1 was purified with a NAP-5 column (Pharmacia) and incubated with 3 μM of GST-fusion proteins for 16 hours at 4° C. After washing 4 times in the binding buffer, radioactivity incorporation was determined in a b counter. The percentage of binding inhibition was calculated as follows: percent inhibition=[radioactivity incorporation using GST-Fas (191-335) with peptides−radioactivity incorporation using GST-Fas (191-320) with peptides]/[radioactivity incorporation using GST-Fas (191-335) without peptides−radioactivity incorporation using GST-Fas (191-320) without peptides]. n=3.

[2] = test system: Fas/FAP-1 binding; experiment: Inhibition of binding of GST-FAP-1 to native Fas extracted from Jurkat T-cells (Western analysis); settings: GST-FAP-1, Jurkat T-cell extracts; FIGS. 4C and 4D
Method: GST-fusion proteins with or without FAP-1 were incubated with cell extracts from Jurkat T-cells expressing Fas. The bound Fas was detected by Western analysis using anti-Fas monoclonal antibody (F22120, Transduction Laboratories). The tripeptides, Ac-SLV and Ac-SLY were used for the inhibition assay of Pas/FAP-1 binding.

[3] = test system: DLD-1 human colon cancer cells; experiment: Microinjection of synthetic tripeptides into DLD-1 cells, Fas-induced apoptosis; assay type: cell-based; settings: tripeptide 100 mM microinjected into cytoplasm, Fas monoclonal antibody CH11 500 ng/ml, 16-20 hours postinjection, condensed chromatin (Hoechst 33342)
Method: DLD-1 human colon cancer cells were cultured in RPMI 1640 medium containing 10% FCS. For microinjection, cells were plated on CELLocate (Eppendorf) at 1×10^5 cells/2 ml in a 35 mm plastic culture dish and grown for 1 day. Just before microinjection, Fas monoclonal antibodies CH11 (MBL International) was added at the concentration of 500 ng/ml. All microinjection experiments were performed using an automatic microinjection system (Eppendorf transjector 5246, micro-manipulator 5171 and Femtotips) (Pantel, et al. 1995). Synthetic tripeptides were suspended in 0.1% (w/v) FITC-Dextran (Sigma)/K-PBS at the concentration of 100 mM. The samples were microinjected into the cytoplasmic region of DLD-1 cells. Sixteen to 20 hours postinjection, the cells were washed with PBS and stained with 10 μg/ml Hoechst 33342 in PBS. After incubation at 37° C. for 30 minutes, the cells were photographed and the cells showing condensed chromatin were counted as apoptotic.
For each experiment, 25-100 cells were microinjected. Apoptosis of microinjected cells was determined by assessing morphological changes of chromatin using phase contrast and fluorescence microscopy (Wang, et al., 1995; McGahon, et al., 1995). The data are means +/− S.D. for two or three independent determinations.

[4] = target: T1, LexA-PLV fusion protein (UniProt P0A7C2 1-202); experiment: yeast two-hybrid (growth on histidine-deficient medium)
T1 construct: Yeast two-hybrid bait; also called pBTM116 (LexA)-PLV; -PLy
T1 sequence: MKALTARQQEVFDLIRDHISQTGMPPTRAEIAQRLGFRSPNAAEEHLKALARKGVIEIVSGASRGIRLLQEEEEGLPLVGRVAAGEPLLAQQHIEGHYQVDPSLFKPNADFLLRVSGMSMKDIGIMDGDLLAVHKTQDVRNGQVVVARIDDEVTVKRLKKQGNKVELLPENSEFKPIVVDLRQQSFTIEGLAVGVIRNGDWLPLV

[5] = target: T2, LexA-SLY fusion protein (UniProt P0A7C2 1-202); experiment: as above
T2 construct: Yeast two-hybrid bait; also called pBTM116 (LexA)-SLY
T2 sequence: T1 sequence with P203S, V205Y

[6] = target: T3, LexA-SLA fusion protein (UniProt P0A7C2 1-202); experiment: as above
T3 construct: Yeast two-hybrid bait; also called pBTM116 (LexA)-SLA
T3 sequence: T1 sequence with P203S, V205A

[7] = test system: FAP-1; experiment: Interaction of C-terminal tripeptides fused to LexA with FAP-1 in yeast two-hybrid system; assay type: cell-based; settings: LexA fusion co-transformed into yeast L40 with pVP16-FAP-1; FIG. 4A
Source text: The bait plasmids, pBTM116 (LexA)-SLV, -PLV, -SLY, and -SLA, were constructed and transformed into L40-strain with pVP16-FAP-1 or -ras. Six independent clones from each transformants were picked up for the analysis of growth on histidine-deficient medium. GST-Fas, -SLV, and PLV were purified with GST-Sepharose 4B affinity beads (Pharmacia). The methods for in vitro binding are described above.

## Ac-SLV-COOH (Ac-Ser-Leu-Val-OH) [acetylated tripeptide of the three C-terminal amino acids of Fas]
[1]; FIG. 3B, acetylated synthetic peptides
  inhibitory effect on the binding of FAP-1 to Fas, truncated acetylated peptides: same level of inhibitory effect
[2]
  binding activity of FAP-1 to Fas proteins extracted from Jurkat T-cells: abolished in a dose-dependent manner
[3]
  induction of apoptosis in microinjected DLD-1 cells: dramatically induced apoptosis

## Ac-SLY: acetylated synthetic tripeptide SLY, used as non-binding control (Ac-Ser-Leu-Tyr)
[2]
  binding activity of FAP-1 to Fas proteins extracted from Jurkat T-cells: not
[3]
  induction of apoptosis in microinjected DLD-1 cells: did not; also recorded: only one cell of the area appeared apoptotic

## DSENSNFRNEIQSLV (Ac-DSENSNFRNEIQSLV) [synthetic 15 amino acids of Fas, synthetic peptide of the C-terminal 15 amino acids of Fas]
[1]
  binding of in vitro-translated FAP-1 to GST-Fas: dramatically reduced and dependent on the concentration

## human PAMP peptide: N-terminal 20 amino acids of proadrenomedullin, negative control (ARLDVASEFRKKWNKWALSR) [reference compound]
[1]
  binding of in vitro-translated FAP-1 to GST-Fas: no effect

B1: FAP-1 expressed from plasmid pVP16-31 (VP16 fusion, yeast two-hybrid prey) (other)
chain: KMNFKTFSSSPPKPGDIFEVELAKNDNSLGISVTGGVNTSVRHGGIYVKAVIPQGAAESDGRIHKGDRVLAVNGVSLEGATHKQAVETLRNTGQVVHLLLEKGQSPTSKEHVPVTPQCTLS
notes: also called pVP16-FAP-1; Fas-associated phosphatase-1
[4]
  binding result: no binding
[5]
  binding result: no binding
[6]
  binding result: no binding

B2: LexA-SLV: LexA DNA binding domain fused to tripeptide SLV (yeast bait) (protein)
chain: T1 sequence with P203S
[7]
  association with FAP-1 in yeast (growth on histidine-deficient medium): associated with FAP-1

B3: LexA-SLA: LexA DNA binding domain fused to tripeptide SLA (yeast bait) (protein)
chain: T1 sequence with P203S, V205A
[7]
  association with FAP-1 in yeast (growth on histidine-deficient medium): did not

B4: LexA-PLV: LexA DNA binding domain fused to tripeptide PLV (yeast bait) (protein)
chain: T1 sequence
[7]
  association with FAP-1 in yeast (growth on histidine-deficient medium): did not

B5: LexA-PLY: LexA DNA binding domain fused to tripeptide PLY (yeast bait) (protein)
chain: T1 sequence with V205Y
[7]
  association with FAP-1 in yeast (growth on histidine-deficient medium): did not

B6: LexA-SLY: LexA DNA binding domain fused to tripeptide SLY (yeast bait) (protein)
chain: T1 sequence with P203S, V205Y
[7]
  association with FAP-1 in yeast (growth on histidine-deficient medium): did not

From patent publication US6911526B2, “Compounds that inhibit the interaction between signal-transducing proteins and the GLGF (PDZ/DHR) domain and uses thereof” (The Trustees of Columbia University in the City of New York, priority 1996, dated 2005)
